Reference: the supplement of paper PMC10126150
± gives the standard deviation of the averaged measurements.

Test system: ATP
Test: switch fluorescence ratio, 500 uM ATP over buffer (Cy3 cluster intensity, sum of 5 cycles each) (fold (ratio)); higher = stronger signal-on switching upon ATP binding; sequences stand for … in TCGTCGGCAGCGTCAGATGTGTATAAGAGACAGTTTTTTTTTTTTTTTTTTTTTTTTT…TC
Conditions: aptamer strand: ATP DNA aptamer (quencher-CACCTGGGGGAGTATTGCGGAGGAAGG + anchor), 100 nM annealed; ATP concentration: 500 uM
How it was run: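 Exposure to 500 uM ATP lasted 15 min at 22 °C before imaging, and a selection-buffer image was taken beforehand, for Cy3-labelled switching-strand clusters on a modified Illumina MiSeq flow-cell annealed to 100 nM quencher-labelled ATP aptamer. Five buffer/ATP cycles were run with NaOH stripping and re-annealing between them. The fluorescence ratio per cluster is summed target-cycle over summed buffer-cycle Cy3 intensity, averaged per switch-domain sequence. Clusters outside 100-1000 RFU were excluded.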

Question: Which switch fluorescence ratio does the source give for TTCTGGGTGG here?
Answer: 0.987 ± 0.04

Question: How did the switch fluorescence ratio turn out when TTCTGGTAGG was run?
Answer: 1 ± 0.025

Question: With TTCTGTAATT as the sequence, how does the switch fluorescence ratio read?
Answer: 1.02 ± 0.018

Question: How did the switch fluorescence ratio turn out when TTCTGTTAGA was run?
Answer: 1 ± 0.012

Question: TTCTGTTGAT was tested. Which switch fluorescence ratio did it give?
Answer: 0.9875 ± 0.0092

Question: Which switch fluorescence ratio does the source give for TTCTTATTTT here?
Answer: 0.999 ± 0.014

Question: How did the switch fluorescence ratio turn out when TTCTTGATAA was run?
Answer: 1.01 ± 0.013

Question: TTCTTGGGGG was tested. Which switch fluorescence ratio did it give?
Answer: 1.01 ± 0.029

Question: Which switch fluorescence ratio does the source give for TTCTTTATTT here?
Answer: 0.993 ± 0.027

Question: How did the switch fluorescence ratio turn out when TTCTTTGAAT was run?
Answer: 1.036 ± 0.0013

Question: TTCTTTGACT was tested. Which switch fluorescence ratio did it give?
Answer: 0.983 ± 0.024

Question: For TTCTTTGGAC, which switch fluorescence ratio is on record?
Answer: 1.0597 ± 0.0003

Question: Which switch fluorescence ratio does the source give for TTCTTTTCTT here?
Answer: 1.02 ± 0.047

Question: For TTGAAAATCT, which switch fluorescence ratio is on record?
Answer: 1.02 ± 0.029

Question: How did the switch fluorescence ratio turn out when TTGAAATATT was run?
Answer: 1.02 ± 0.013

Question: Which switch fluorescence ratio does the source give for TTGAAATCTT here?
Answer: 1.78 ± 1

Question: How did the switch fluorescence ratio turn out when TTGAAATTT was run?
Answer: 1.001 ± 0.003

Question: How did the switch fluorescence ratio turn out when TTGAACGAGA was run?
Answer: 0.998 ± 0.019

Question: With TTGAACGCGG as the sequence, how does the switch fluorescence ratio read?
Answer: 1.05 ± 0.018

Question: With TTGAACGGGA as the sequence, how does the switch fluorescence ratio read?
Answer: 1.01 ± 0.044

Question: TTGAACTTGT was tested. Which switch fluorescence ratio did it give?
Answer: 1.03 ± 0.028

Question: With TTGAAGGTGC as the sequence, how does the switch fluorescence ratio read?
Answer: 1.69 ± 0.43

Question: TTGAATAGTG was tested. Which switch fluorescence ratio did it give?
Answer: 0.966 ± 0.029

Question: Which switch fluorescence ratio does the source give for TTGAATTTGT here?
Answer: 0.975 ± 0.023

Question: With TTGACAAGAT as the sequence, how does the switch fluorescence ratio read?
Answer: 1.28 ± 0.39

Question: Which switch fluorescence ratio does the source give for TTGACACTCG here?
Answer: 0.98 ± 0.021

Question: For TTGACAGAGT, which switch fluorescence ratio is on record?
Answer: 1.01 ± 0.028

Question: TTGACCGGAA was tested. Which switch fluorescence ratio did it give?
Answer: 1.14 ± 0.038

Question: For TTGACCTGGT, which switch fluorescence ratio is on record?
Answer: 1.05 ± 0.053

Question: For TTGACGAAAT, which switch fluorescence ratio is on record?
Answer: 1.41 ± 0.03

Question: How did the switch fluorescence ratio turn out when TTGACGCAGT was run?
Answer: 1.23 ± 0.03

Question: TTGACGTATT was tested. Which switch fluorescence ratio did it give?
Answer: 0.9874 ± 0.006

Question: For TTGACGTGTG, which switch fluorescence ratio is on record?
Answer: 0.961 ± 0.01

Question: TTGACTTTTT was tested. Which switch fluorescence ratio did it give?
Answer: 0.991 ± 0.016

Question: TTGAGAATAC was tested. Which switch fluorescence ratio did it give?
Answer: 1.62 ± 0.68

Question: How did the switch fluorescence ratio turn out when TTGAGAATT was run?
Answer: 1.02 ± 0.051

Question: How did the switch fluorescence ratio turn out when TTGAGATCGG was run?
Answer: 1.01 ± 0.05

Question: Which switch fluorescence ratio does the source give for TTGAGATGGT here?
Answer: 0.954 ± 0.017

Question: Which switch fluorescence ratio does the source give for TTGAGATTCG here?
Answer: 1.01 ± 0.031

Question: How did the switch fluorescence ratio turn out when TTGAGATTGC was run?
Answer: 0.98 ± 0.027

Question: How did the switch fluorescence ratio turn out when TTGAGCAGCG was run?
Answer: 1.09 ± 0.07

Question: TTGAGCATAG was tested. Which switch fluorescence ratio did it give?
Answer: 1.43 ± 0.44

Question: Which switch fluorescence ratio does the source give for TTGAGCCA here?
Answer: 1.01 ± 0.025

Question: For TTGAGCTAGG, which switch fluorescence ratio is on record?
Answer: 1.01 ± 0.023

Question: With TTGAGCTGTT as the sequence, how does the switch fluorescence ratio read?
Answer: 0.981 ± 0.033

Question: Which switch fluorescence ratio does the source give for TTGAGGAATG here?
Answer: 1.02 ± 0.018

Question: TTGAGGGCAT was tested. Which switch fluorescence ratio did it give?
Answer: 1.29 ± 0.45

Question: Which switch fluorescence ratio does the source give for TTGAGGGGCG here?
Answer: 0.996 ± 0.044

Question: With TTGAGGTATA as the sequence, how does the switch fluorescence ratio read?
Answer: 0.987 ± 0.025

Question: How did the switch fluorescence ratio turn out when TTGAGTACTT was run?
Answer: 0.988 ± 0.025

Question: With TTGAGTCATG as the sequence, how does the switch fluorescence ratio read?
Answer: 0.978 ± 0.047

Question: Which switch fluorescence ratio does the source give for TTGAGTGGTC here?
Answer: 0.997 ± 0.016

Question: With TTGAGTTACT as the sequence, how does the switch fluorescence ratio read?
Answer: 0.981 ± 0.063

Question: With TTGAGTTCGG as the sequence, how does the switch fluorescence ratio read?
Answer: 0.986 ± 0.015

Question: How did the switch fluorescence ratio turn out when TTGAGTTTGA was run?
Answer: 0.994 ± 0.011

Question: With TTGATATAGT as the sequence, how does the switch fluorescence ratio read?
Answer: 0.9993 ± 0.0073

Question: With TTGATATATA as the sequence, how does the switch fluorescence ratio read?
Answer: 0.974 ± 0.018

Question: Which switch fluorescence ratio does the source give for TTGATATATT here?
Answer: 0.981 ± 0.017

Question: Which switch fluorescence ratio does the source give for TTGATATCTA here?
Answer: 0.982 ± 0.049

Question: With TTGATATGGA as the sequence, how does the switch fluorescence ratio read?
Answer: 0.98 ± 0.022

Question: TTGATATGGG was tested. Which switch fluorescence ratio did it give?
Answer: 1.03 ± 0.11

Question: With TTGATCTCAT as the sequence, how does the switch fluorescence ratio read?
Answer: 0.9479 ± 0.0076

Question: For TTGATGCGGA, which switch fluorescence ratio is on record?
Answer: 0.971 ± 0.05

Question: TTGATGCTCT was tested. Which switch fluorescence ratio did it give?
Answer: 1.21 ± 0.28

Question: TTGATGGATG was tested. Which switch fluorescence ratio did it give?
Answer: 1.04 ± 0.09

Question: How did the switch fluorescence ratio turn out when TTGATGGGAT was run?
Answer: 0.988 ± 0.052

Question: For TTGATGGGTA, which switch fluorescence ratio is on record?
Answer: 1.01 ± 0.032

Question: How did the switch fluorescence ratio turn out when TTGATGGTAA was run?
Answer: 0.977 ± 0.022

Question: Which switch fluorescence ratio does the source give for TTGATGGTAC here?
Answer: 1.0774 ± 0.00051

Question: Which switch fluorescence ratio does the source give for TTGATGTGCT here?
Answer: 1.01 ± 0.013

Question: Which switch fluorescence ratio does the source give for TTGATGTTGG here?
Answer: 0.992 ± 0.048

Question: How did the switch fluorescence ratio turn out when TTGATTACTC was run?
Answer: 1.04 ± 0.051

Question: For TTGATTCAGC, which switch fluorescence ratio is on record?
Answer: 1.01 ± 0.012

Question: For TTGATTCATA, which switch fluorescence ratio is on record?
Answer: 0.98126 ± 0.00011

Question: With TTGATTCATT as the sequence, how does the switch fluorescence ratio read?
Answer: 1.01 ± 0.025

Question: For TTGATTGATA, which switch fluorescence ratio is on record?
Answer: 1 ± 0.028

Question: How did the switch fluorescence ratio turn out when TTGATTGCTT was run?
Answer: 0.9717 ± 0.0011

Question: TTGATTGGCC was tested. Which switch fluorescence ratio did it give?
Answer: 0.958 ± 0.018

Question: TTGATTGGTA was tested. Which switch fluorescence ratio did it give?
Answer: 1 ± 0.041

Question: TTGATTTCGT was tested. Which switch fluorescence ratio did it give?
Answer: 0.9998 ± 0.0024

Question: How did the switch fluorescence ratio turn out when TTGCAAAACT was run?
Answer: 1.32 ± 0.51

Question: For TTGCAAATCG, which switch fluorescence ratio is on record?
Answer: 1.11 ± 0.18

Question: TTGCAATTAT was tested. Which switch fluorescence ratio did it give?
Answer: 1.26 ± 0.18

Question: Which switch fluorescence ratio does the source give for TTGCACCATT here?
Answer: 1.05 ± 0.12

Question: Which switch fluorescence ratio does the source give for TTGCACGGTT here?
Answer: 1.04 ± 0.06
